± gives the standard deviation of the averaged measurements.
Key:
hTERT-HMEC = test: percentage of EdU-negative (G0-arrested) nuclei per well, 72 h; higher = more G0 arrest; conditions: reference: sequence is the full UniProt precursor, the tested protein was the secreted form or ectodomain
MCF7 = test: as above; conditions: reference: sequence is the full UniProt precursor, the tested protein was the secreted form or ectodomain
[1] = protein concentration 0.0257143 µM
[2] = protein concentration 0.257143 µM
[3] = protein concentration 0.0225 µM
[4] = protein concentration 0.00771429 µM
[5] = protein concentration 0.0771429 µM
[6] = protein concentration 0.03125 µM
[7] = protein concentration 0.3125 µM
[8] = protein concentration 0.02225 µM
[9] = protein concentration 0.2225 µM
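Further: secreted proteins added to cultured cells, EdU pulse at the end, nuclei found by Hoechst imaging, EdU status from nuclear versus surrounding ring intensity ratio, PBS as neutral control.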

Sequence | percentage of EdU-negative (hTERT-HMEC; [3]) | percentage of EdU-negative (hTERT-HMEC; protein concentration 0.225 µM) | percentage of EdU-negative (MCF7; [3]) | percentage of EdU-negative (MCF7; protein concentration 0.225 µM) | other results
MWLRLGPPSLSLSPKPTVGRSLCLTLWFLSLALRASTQAPAPTVNTHFGKLRGARVPLPSEILGPVDQYLGVPYAAPPIGEKRFLPPEPPPSWSGIRNATHFPPVCPQNIHTAVPEVMLPVWFTANLDIVATYIQEPNEDCLYLNVYVPTEDVKRISKECARKPNKKICRKGGSGAKKQGEDLADNDGDEDEDIRDSGAKPVMVYIHGGSYMEGTGNMIDGSILASYGNVIVITLNYRVGVLGFLSTGDQAAKGNYGLLDQIQALRWVSENIAFFGGDPRRITVFGSGIGASCVSLLTLSHHSEGLFQRAIIQSGSALSSWAVNYQPVKYTSLLADKVGCNVLDTVDMVDCLRQKSAKELVEQDIQPARYHVAFGPVIDGDVIPDDPEILMEQGEFLNYDIMLGVNQGEGLKFVEGVVDPEDGVSGTDFDYSVSNFVDNLYGYPEGKDTLRETIKFMYTDWADRDNPETRRKTLVALFTDHQWVEPSVVTADLHARYGSPTYFYAFYHHCQSLMKPAWSDAAHGDEVPYVFGVPMVGPTDLFPCNFSKNDVMLSAVVMTYWTNFAKTGDPNKPVPQDTKFIHTKANRFEEVAWSKYNPRDQLYLHIGLKPRVRDHYRATKVAFWKHLVPHLYNLHDMFHYTSTTTKVPPPDTTHSSHITRRPNGKTWSTKRPAISPAYSNENAQGSWNGDQDAGPLLVENPRDYSTELSVTIAVGASLLFLNVLAFAALYYRKDKRRQEPLRQPSPQRGAGAPELGAAPEEELAALQLGPTHHECEAGPPHDTLRLTALPDYTLTLRRSPDDIPLMTPNTITMIPNSLVGLQTLHPYNTFAAGFNSTGLPHSHSTTRV [Q9NZ94] | – | – | – | – | percentage of EdU-negative (hTERT-HMEC; [1]): 5.8 ± 1.5%; percentage of EdU-negative (hTERT-HMEC; [2]): 10.2 ± 2.3%; percentage of EdU-negative (MCF7; [1]): 24.2 ± 1.1%; percentage of EdU-negative (MCF7; [2]): 24.1 ± 1.1%
MWNMLIVAMCLALLGCLQAQELQGHVSIILLGATGDLAKKYLWQGLFQLYLDEAGRGHSFSFHGAALTAPKQGQELMAKALESLSCPKDMAPSHCAEHKDQFLQLSQYRQLKTAEDYQALNKDIEAQLQHAGLREAGRIFYFSVPPFAYEDIARNINSSCRPGPGAWLRVVLEKPFGHDHFSAQQLATELGTFFQEEEMYRVDHYLGKQAVAQILPFRDQNRKALDGLWNRHHVERVEIIMKETVDAEGRTSFYEEYGVIRDVLQNHLTEVLTLVAMELPHNVSSAEAVLRHKLQVFQALRGLQRGSAVVGQYQSYSEQVRRELQKPDSFHSLTPTFAAVLVHIDNLRWEGVPFILMSGKALDERVGYARILFKNQACCVQSEKHWAAAQSQCLPRQLVFHIGHGDLGSPAVLVSRNLFRPSLPSSWKEMEGPPGLRLFGSPLSDYYAYSPVRERDAHSVLLSHIFHGRKNFFITTENLLASWNFWTPLLESLAHKAPRLYPGGAENGRLLDFEFSSGRLFFSQQQPEQLVPGPGPAPMPSDFQVLRAKYRESPLVSAWSEELISKLANDIEATAVRAVRRFGQFHLALSGGSSPVALFQQLATAHYGFPWAHTHLWLVDERCVPLSDPESNFQGLQAHLLQHVRIPYYNIHPMPVHLQQRLCAEEDQGAQIYAREISALVANSSFDLVLLGMGADGHTASLFPQSPTGLDGEQLVVLTTSPSQPHRRMSLSLPLINRAKKVAVLVMGRMKREITTLVSRVGHEPKKWPISGVLPHSGQLVWYMDYDAFLG | 5.45 ± 1.2% | 7.4 ± 1.2% | 23.3 ± 2.2% | 25.2 ± 1.6% | –
MWPLTVPPPLLLLLCSGLAGQTLFQNPEEGWQLYTSAQAPDGKCICTAVIPAQSTCSRDGRSRELRQLMEKVQNVSQSMEVLELRTYRDLQYVRGMETLMRSLDARLRAADGSLSAKSFQELKDRMTELLPLSSVLEQYKADTRTIVRLREEVRNLSGSLAAIQEEMGAYGYEDLQQRVMALEARLHACAQKLGCGKLTGVSNPITVRAMGSRFGSWMTDTMAPSADSRVWYMDGYYKGRRVLEFRTLGDFIKGQNFIQHLLPQPWAGTGHVVYNGSLFYNKYQSNVVVKYHFRSRSVLVQRSLPGAGYNNTFPYSWGGFSDMDFMVDESGLWAVYTTNQNAGNIVVSRLDPHTLEVMRSWDTGYPKRSAGEAFMICGVLYVTNSHLAGAKVYFAYFTNTSSYEYTDVPFHNQYSHISMLDYNPRERALYTWNNGHQVLYNVTLFHVISTSGDP | – | – | – | – | percentage of EdU-negative (hTERT-HMEC; [4]): 4.89 ± 0.63%; percentage of EdU-negative (hTERT-HMEC; [5]): 5.22 ± 0.46%; percentage of EdU-negative (MCF7; [4]): 24.6 ± 2.2%; percentage of EdU-negative (MCF7; [5]): 29 ± 4.7%
MWPLWRLVSLLALSQALPFEQRGFWDFTLDDGPFMMNDEEASGADTSGVLDPDSVTPTYSAMCPFGCHCHLRVVQCSDLGLKSVPKEISPDTTLLDLQNNDISELRKDDFKGLQHLYALVLVNNKISKIHEKAFSPLRKLQKLYISKNHLVEIPPNLPSSLVELRIHDNRIRKVPKGVFSGLRNMNCIEMGGNPLENSGFEPGAFDGLKLNYLRISEAKLTGIPKDLPETLNELHLDHNKIQAIELEDLLRYSKLYRLGLGHNQIRMIENGSLSFLPTLRELHLDNNKLARVPSGLPDLKLLQVVYLHSNNITKVGVNDFCPMGFGVKRAYYNGISLFNNPVPYWEVQPATFRCVTDRLAIQFGNYKK | – | – | – | – | percentage of EdU-negative (hTERT-HMEC; [6]): 4.62 ± 0.74%; percentage of EdU-negative (hTERT-HMEC; [7]): 7.32 ± 0.21%; percentage of EdU-negative (MCF7; [6]): 25.3 ± 1.7%; percentage of EdU-negative (MCF7; [7]): 25.1 ± 3.1%
MWQIVFFTLSCDLVLAAAYNNFRKSMDSIGKKQYQVQHGSCSYTFLLPEMDNCRSSSSPYVSNAVQRDAPLEYDDSVQRLQVLENIMENNTQWLMKLENYIQDNMKKEMVEIQQNAVQNQTAVMIEIGTNLLNQTAEQTRKLTDVEAQVLNQTTRLELQLLEHSLSTNKLEKQILDQTSEINKLQDKNSFLEKKVLAMEDKHIIQLQSIKEEKDQLQVLVSKQNSIIEELEKKIVTATVNNSVLQKQQHDLMETVNNLLTMMSTSNSAKDPTVAKEEQISFRDCAEVFKSGHTTNGIYTLTFPNSTEEIKAYCDMEAGGGGWTIIQRREDGSVDFQRTWKEYKVGFGNPSGEYWLGNEFVSQLTNQQRYVLKIHLKDWEGNEAYSLYEHFYLSSEELNYRIHLKGLTGTAGKISSISQPGNDFSTKDGDNDKCICKCSQMLTGGWWFDACGPSNLNGMYYPQRQNTNKFNGIKWYYWKGSGYSLKATTMMIRPADF | – | – | – | – | percentage of EdU-negative (hTERT-HMEC; [8]): 4.54 ± 0.087%; percentage of EdU-negative (hTERT-HMEC; [9]): 7.44 ± 0.6%; percentage of EdU-negative (MCF7; [8]): 27.2 ± 1.1%; percentage of EdU-negative (MCF7; [9]): 27.32 ± 0.1%
MWQLLLPTALLLLVSAGMRTEDLPKAVVFLEPQWYSVLEKDSVTLKCQGAYSPEDNSTQWFHNENLISSQASSYFIDAATVNDSGEYRCQTNLSTLSDPVQLEVHIGWLLLQAPRWVFKEEDPIHLRCHSWKNTALHKVTYLQNGKDRKYFHHNSDFHIPKATLKDSGSYFCRGLVGSKNVSSETVNITITQGLAVSTISSFSPPGYQVSFCLVMVLLFAVDTGLYFSVKTNI | 4.18 ± 0.071% | 4.98 ± 1.1% | 25.6 ± 2.5% | 25.5 ± 3.6% | –
MWSGWWLWPLVAVCTADFFRDEAERIMRDSPVIDGHNDLPWQLLDMFNNRLQDERANLTTLAGTHTNIPKLRAGFVGGQFWSVYTPCDTQNKDAVRRTLEQMDVVHRMCRMYPETFLYVTSSAGIRQAFREGKVASLIGVEGGHSIDSSLGVLRALYQLGMRYLTLTHSCNTPWADNWLVDTGDSEPQSQGLSPFGQRVVKELNRLGVLIDLAHVSVATMKATLQLSRAPVIFSHSSAYSVCASRRNVPDDVLRLVKQTDSLVMVNFYNNYISCTNKANLSQVADHLDHIKEVAGARAVGFGGDFDGVPRVPEGLEDVSKYPDLIAELLRRNWTEAEVKGALADNLLRVFEAVEQASNLTQAPEEEPIPLDQLGGSCRTHYGYSSGASSLHRHWGLLLASLAPLVLCLSLL | 5.01 ± 0.58% | 5.87 ± 0.22% | 25 ± 0.35% | 25.2 ± 0.86% | –
MWSLLLCGLSIALPLSVTADGCKDIFMKNEILSASQPFAFNCTFPPITSGEVSVTWYKNSSKIPVSKIIQSRIHQDETWILFLPMEWGDSGVYQCVIKGRDSCHRIHVNLTVFEKHWCDTSIGGLPNLSDEYKQILHLGKDDSLTCHLHFPKSCVLGPIKWYKDCNEIKGERFTVLETRLLVSNVSAEDRGNYACQAILTHSGKQYEVLNGITVSITERAGYGGSVPKIIYPKNHSIEVQLGTTLIVDCNVTDTKDNTNLRCWRVNNTLVDDYYDESKRIREGVETHVSFREHNLYTVNITFLEVKMEDYGLPFMCHAGVSTAYIILQLPAPDFRAYLIGGLIALVAVAVSVVYIYNIFKIDIVLWYRSAFHSTETIVDGKLYDAYVLYPKPHKESQRHAVDALVLNILPEVLERQCGYKLFIFGRDEFPGQAVANVIDENVKLCRRLIVIVVPESLGFGLLKNLSEEQIAVYSALIQDGMKVILIELEKIEDYTVMPESIQYIKQKHGAIRWHGDFTEQSQCMKTKFWKTVRYHMPPRRCRPFPPVQLLQHTPCYRTAGPELGSRRKKCTLTTG [Q9HB29] | 5.48 ± 0.32% | 6.16 ± 0.14% | 24.7 ± 2.6% | 24 ± 0.89% | –
MWTLGRRAVAGLLASPSPAQAQTLTRVPRPAELAPLCGRRGLRTDIDATCTPRRASSNQRGLNQIWNVKKQSVYLMNLRKSGTLGHPGSLDETTYERLAEETLDSLAEFFEDLADKPYTFEDYDVSFGSGVLTVKLGGDLGTYVINKQTPNKQIWLSSPSSGPKRYDWTGKNWVYSHDGVSLHELLAAELTKALKTKLDLSSLAYSGKDA | 4.76 ± 0.24% | 9.96 ± 1% | 25.6 ± 0.72% | 26.7 ± 4% | –
